Test results as given in IntAct's records for PubMed 25684205.

B1: Kelch repeat and BTB domain-containing protein 6 (Homo sapiens), Q86V97 (parent)
chain: MQSREDAPRSRRLASPRGGKRPKKIHKPTVSAFFTGPEELKDTAHSAALLAQLKSFYDARLLCDVTIEVVTPGSGPGTGRLFPCNRNVLAAACPYFKSMFTGGMYESQQASVTMHDVDAESFEVLVDYCYTGRVSLSEANVERLYAASDMLQLEYVREACASFLARRLDLTNCTAILKFADAFGHRKLRSQAQSYIAQNFKQLSHMGSIREETLADLTLAQLLAVLRLDSLDVESEQTVCHVAVQWLEAAPKERGPSAAEVFKCVRWMHFTEEDQDYLEGLLTKPIVKKYCLDVIEGALQMRYGDLLYKSLVPVPNSSSSSSSSNSLVSAAENPPQRLGMCAKEMVIFFGHPRDPFLCCDPYSGDLYKVPSPLTCLAHTRTVTTLAVCISPDHDIYLAAQPRTDLWVYKPAQNSWQQLADRLLCREGMDVAYLNGYIYILGGRDPITGVKLKEVECYNVKRNQWALVAPLPHSFLSFDLMVIRDYLYALNSKRMFCYDPSHNMWLKCVSLKRNDFQEACVFNEEIYCICDIPVMKVYNPVRAEWRQMNNIPLVSETNNYRIIKHGQKLLLITSRTPQWKKNRVTVYEYDIRGDQWINIGTTLGLLQFDSNFFCLSARVYPSCLEPGQSFLTEEEEIPSESSTEWDLGGFSEPDSESGSSSSLSDDDFWVRVAPQ
B2: Kelch repeat and BTB domain-containing protein 7 (Homo sapiens), Q8WVZ9 (parent)
chain: MQSREDVPRSRRLASPRGGRRPKRISKPSVSAFFTGPEELKDTAHSAALLAQLKSFYDARLLCDVTIEVVTPGSGPGTGRLFSCNRNVLAAACPYFKSMFTGGMYESQQASVTMHDVDAESFEVLVDYCYTGRVSLSEANVQRLYAASDMLQLEYVREACASFLARRLDLTNCTAILKFADAFDHHKLRSQAQSYIAHNFKQLSRMGSIREETLADLTLAQLLAVLRLDSLDIESERTVCHVAVQWLEAAAKERGPSAAEVFKCVRWMHFTEEDQDYLEGLLTKPIVKKYCLDVIEGALQMRYGDLLYKSLVPVPNSSSSSSSSNSLVSAAENPPQRLGMCAKEMVIFFGHPRDPFLCYDPYSGDIYTMPSPLTSFAHTKTVTSSAVCVSPDHDIYLAAQPRKDLWVYKPAQNSWQQLADRLLCREGMDVAYLNGYIYILGGRDPITGVKLKEVECYSVQRNQWALVAPVPHSFYSFELIVVQNYLYAVNSKRMLCYDPSHNMWLNCASLKRSDFQEACVFNDEIYCICDIPVMKVYNPARGEWRRISNIPLDSETHNYQIVNHDQKLLLITSTTPQWKKNRVTVYEYDTREDQWINIGTMLGLLQFDSGFICLCARVYPSCLEPGQSFITEEDDARSESSTEWDLDGFSELDSESGSSSSFSDDEVWVQVAPQRNAQDQQGSL

Variants of: B1
Details: with tiam1_human TIAM1, Q13009
Target sequence in this assay (Q13009 whole entry): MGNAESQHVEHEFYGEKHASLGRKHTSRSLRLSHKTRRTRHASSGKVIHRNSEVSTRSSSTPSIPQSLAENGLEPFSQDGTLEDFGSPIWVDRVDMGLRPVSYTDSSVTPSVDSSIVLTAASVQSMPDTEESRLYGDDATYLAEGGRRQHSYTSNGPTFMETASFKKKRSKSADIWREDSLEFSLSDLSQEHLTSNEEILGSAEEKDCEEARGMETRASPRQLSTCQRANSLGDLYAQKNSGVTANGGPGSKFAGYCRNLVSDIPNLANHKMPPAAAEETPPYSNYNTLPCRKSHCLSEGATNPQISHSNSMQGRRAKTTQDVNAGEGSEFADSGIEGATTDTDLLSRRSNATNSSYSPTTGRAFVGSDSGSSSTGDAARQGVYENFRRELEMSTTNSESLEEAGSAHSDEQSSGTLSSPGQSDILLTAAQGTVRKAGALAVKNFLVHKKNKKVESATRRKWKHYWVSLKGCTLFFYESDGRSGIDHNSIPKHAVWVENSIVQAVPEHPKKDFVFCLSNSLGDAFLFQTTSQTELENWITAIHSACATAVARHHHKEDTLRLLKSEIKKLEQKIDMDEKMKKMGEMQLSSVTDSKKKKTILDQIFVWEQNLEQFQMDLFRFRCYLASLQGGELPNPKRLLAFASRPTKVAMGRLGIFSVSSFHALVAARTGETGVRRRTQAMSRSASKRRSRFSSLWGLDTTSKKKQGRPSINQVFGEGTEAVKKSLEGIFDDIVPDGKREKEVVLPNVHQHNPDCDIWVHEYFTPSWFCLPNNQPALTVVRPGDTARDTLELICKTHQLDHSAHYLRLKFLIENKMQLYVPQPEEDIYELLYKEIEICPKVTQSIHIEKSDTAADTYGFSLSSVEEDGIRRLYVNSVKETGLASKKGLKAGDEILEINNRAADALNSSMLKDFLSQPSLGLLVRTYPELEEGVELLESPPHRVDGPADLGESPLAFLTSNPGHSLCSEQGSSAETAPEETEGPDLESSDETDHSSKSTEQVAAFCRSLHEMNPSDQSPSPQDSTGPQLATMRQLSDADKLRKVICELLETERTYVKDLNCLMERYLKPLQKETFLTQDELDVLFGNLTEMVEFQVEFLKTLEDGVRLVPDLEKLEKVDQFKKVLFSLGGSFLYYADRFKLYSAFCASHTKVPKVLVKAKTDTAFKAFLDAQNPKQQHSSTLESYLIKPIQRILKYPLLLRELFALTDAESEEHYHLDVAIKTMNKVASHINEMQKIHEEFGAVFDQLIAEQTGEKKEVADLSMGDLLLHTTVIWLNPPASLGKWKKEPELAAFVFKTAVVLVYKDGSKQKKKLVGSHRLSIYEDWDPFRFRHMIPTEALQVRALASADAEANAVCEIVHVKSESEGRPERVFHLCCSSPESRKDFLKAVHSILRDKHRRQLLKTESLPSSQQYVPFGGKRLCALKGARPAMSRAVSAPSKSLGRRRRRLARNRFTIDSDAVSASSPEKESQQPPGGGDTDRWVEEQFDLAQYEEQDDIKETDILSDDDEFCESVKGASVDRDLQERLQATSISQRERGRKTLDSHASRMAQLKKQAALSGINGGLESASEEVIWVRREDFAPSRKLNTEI

| Variant | effect of a mutation on the interaction |
| --- | --- |
| W668A | decreasing interaction strength |

Variants of: B1
Details: with cul3_human CUL3, Q13618

| Variant | effect of a mutation on the interaction |
| --- | --- |
| M99A | disrupting interaction strength |

Variants of: B2
Details: with tiam1_human TIAM1, Q13009
Target sequence in this assay (Q13009 whole entry): as above

| Variant | effect of a mutation on the interaction |
| --- | --- |
| M99A | with no effect |
| W668A | decreasing interaction strength |

Variants of: B2
Details: with cul3_human CUL3, Q13618

| Variant | effect of a mutation on the interaction |
| --- | --- |
| M99A | disrupting interaction strength |

Variants of: B2
Details: with gbrap_human GABARAP

| Variant | effect of a mutation on the interaction |
| --- | --- |
| W668A | decreasing interaction strength |
| F122A | with no effect |
| Y559A | with no effect |
| F649A | with no effect |

Variants of: B2
Details: with gbrl2_human GABARAPL2, P60520
Sequence of gbrl2_human GABARAPL2, P60520 (P60520 whole entry): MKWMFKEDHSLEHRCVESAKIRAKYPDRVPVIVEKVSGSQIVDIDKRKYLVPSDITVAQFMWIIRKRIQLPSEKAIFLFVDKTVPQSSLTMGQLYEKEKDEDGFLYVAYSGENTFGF

| Variant | effect of a mutation on the interaction |
| --- | --- |
| W668A | with no effect |
| F122A | with no effect |
| Y559A | with no effect |
| F649A | with no effect |

Variants of: B2
Details: with mlp3b_human MAP1LC3B

| Variant | effect of a mutation on the interaction |
| --- | --- |
| W668A | disrupting interaction strength |
| F122A | with no effect |
| Y559A | with no effect |
| F649A | with no effect |
